Laboratory results: US6413943 (CELL GENESYS, dated 2002)

Experiments:
Test in all cases: cell-based or functional assay
CDC2/cyclin B complex = CDC2/cyclin B complex (UniProt P06493 1-297)
CDK4/cyclin D1 complex = CDK4/cyclin D1 complex (UniProt P11802 1-303; P24385 1-295)
CDK2/cyclin E complex = CDK2/cyclin E complex (UniProt P24941 1-298)
CDK2/cyclin A complex = CDK2/cyclin A complex (UniProt P24941 1-298)

CDK4/cyclin D1 complex, sequence (P11802 whole entry, chain 1 of 2): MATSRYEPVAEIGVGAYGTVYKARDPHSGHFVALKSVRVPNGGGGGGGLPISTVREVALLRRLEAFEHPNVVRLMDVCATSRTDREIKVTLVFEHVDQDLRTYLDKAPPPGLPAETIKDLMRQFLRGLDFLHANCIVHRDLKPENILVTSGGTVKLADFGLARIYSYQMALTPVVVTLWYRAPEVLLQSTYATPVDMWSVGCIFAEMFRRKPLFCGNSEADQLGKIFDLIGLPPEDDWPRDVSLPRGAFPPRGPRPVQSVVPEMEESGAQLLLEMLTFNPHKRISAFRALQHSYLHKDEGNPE
CDK4/cyclin D1 complex, sequence (P24385 whole entry, chain 2 of 2): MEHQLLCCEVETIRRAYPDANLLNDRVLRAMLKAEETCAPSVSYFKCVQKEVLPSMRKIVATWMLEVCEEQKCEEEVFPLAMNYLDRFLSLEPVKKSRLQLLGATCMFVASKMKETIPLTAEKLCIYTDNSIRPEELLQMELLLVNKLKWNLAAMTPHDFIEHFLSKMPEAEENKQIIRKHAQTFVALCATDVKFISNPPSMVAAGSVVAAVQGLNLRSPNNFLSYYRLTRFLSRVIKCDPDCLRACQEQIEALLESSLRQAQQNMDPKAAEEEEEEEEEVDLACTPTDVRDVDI
CDC2/cyclin B complex, sequence (P06493 whole entry, one chain of several): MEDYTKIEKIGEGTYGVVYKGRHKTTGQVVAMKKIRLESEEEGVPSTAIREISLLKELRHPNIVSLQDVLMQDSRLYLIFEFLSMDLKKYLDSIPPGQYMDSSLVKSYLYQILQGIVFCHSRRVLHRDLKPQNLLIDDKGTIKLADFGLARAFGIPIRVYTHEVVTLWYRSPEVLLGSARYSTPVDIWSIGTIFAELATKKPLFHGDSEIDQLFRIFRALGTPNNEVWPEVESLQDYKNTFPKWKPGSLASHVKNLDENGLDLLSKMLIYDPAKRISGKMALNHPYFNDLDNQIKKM

B1: human p16 (other)
chain: MEPAAGSSMEPSADWLATAAARGRVEEVRALLEAGALPNAPNSYGRRPIQVMMMGSARVAELLLLHGAEPNCADPATLTRPVHDAAREGFLDTLVVLHRAGARLDVRDAWGRLPVDLAEELGHRDVARYLRAAAGGTRGSNHARIDAAEGPSDIPD
In the case of B1, the “IC50, in vitro kinase activity (histone H1 phosphorylation)” value (CDC2/cyclin B complex) is reported as greater than 500 nM, the “IC50, in vitro kinase activity (GST-Rb phosphorylation)” value (CDK4/cyclin D1 complex) is reported as 250 nM and the “IC50, in vitro kinase activity (GST-Rb phosphorylation)” value (CDK2/cyclin E complex) is reported as greater than 500 nM. For the same binder, the “IC50, in vitro kinase activity” value (CDK2/cyclin A complex) was greater than 500 nM.
